US20250244325A1

Tests used:
[1] = substrate: S clamp antigen from CSL451 GMP batch TC20-02-08 (sublot VS20200615A) (SARS-CoV-2) (UniProt P0DTC2); experiment: kinetics on CM5 chip: anti-mouse Ab, 30B8 captured, CSL451 Sclamp antigen in solution, 1:1 binding; density 13 RU, table row 5
[2] = substrate: S clamp antigen from CSL451 GMP batch TC20-02-08 (sublot VS20200615A) (SARS-CoV-2) (UniProt P0DTC2); experiment: kinetics on CM5 chip: anti-mouse Ab, 30B8 captured, CSL451 Sclamp antigen in solution, 1:1 binding; density 7 RU, table row 8
[3] = substrate: S clamp antigen from CSL451 GMP batch TC20-02-08 (sublot VS20200615A) (SARS-CoV-2) (UniProt P0DTC2); experiment: kinetics on CM5 chip: anti-mouse Ab, 30B8 captured, CSL451 Sclamp antigen in solution, 1:1 binding; density 13 RU
[4] = substrate: S clamp antigen from CSL451 GMP batch TC20-02-08 (sublot VS20200615A) (SARS-CoV-2) (UniProt P0DTC2); experiment: kinetics on CM5 chip: anti-mouse Ab, 30B8 captured, CSL451 Sclamp antigen in solution, 1:1 binding; density 20 RU, table row 3
[5] = substrate: S clamp antigen from CSL451 GMP batch TC20-02-08 (sublot VS20200615A) (SARS-CoV-2) (UniProt P0DTC2); experiment: kinetics on CM5 chip: anti-mouse Ab, 30B8 captured, CSL451 Sclamp antigen in solution, 1:1 binding; density 40 RU, table row 1
[6] = substrate: S clamp antigen from CSL451 GMP batch TC20-02-08 (sublot VS20200615A) (SARS-CoV-2) (UniProt P0DTC2); experiment: homologous 30B8 capture/detection EIA; CSL451 DP held 1 h at room temperature (control), pre-treated with 0.125% Zwittergent 3 h at 37 C, antigen titrated
[7] = substrate: S clamp antigen from CSL451 GMP batch TC20-02-08 (sublot VS20200615A) (SARS-CoV-2) (UniProt P0DTC2); experiment: kinetics on CM5 chip: anti-mouse Ab, 30B8 captured, CSL451 Sclamp antigen in solution, 1:1 binding; density 20 RU, table row 4
[8] = substrate: S clamp antigen from CSL451 GMP batch TC20-02-08 (sublot VS20200615A) (SARS-CoV-2) (UniProt P0DTC2); experiment: kinetics on CM5 chip: anti-mouse Ab, 30B8 captured, CSL451 Sclamp antigen in solution, 1:1 binding; density 7 RU, table row 7
[9] = substrate: S clamp antigen from CSL451 GMP batch TC20-02-08 (sublot VS20200615A) (SARS-CoV-2) (UniProt P0DTC2); experiment: kinetics on CM5 chip: anti-mouse Ab, 30B8 captured, CSL451 Sclamp antigen in solution, 1:1 binding; density 40 RU, table row 2
[10] = substrate: S clamp antigen from CSL451 GMP batch TC20-02-08 (sublot VS20200615A) (SARS-CoV-2) (UniProt P0DTC2); experiment: kinetics on CM5 chip: anti-mouse Ab, 30B8 captured, CSL451 Sclamp antigen in solution, 1:1 binding; MEAN ± SEM of the eight runs
[11] = substrate: S clamp antigen from CSL451 GMP batch TC20-02-08 (sublot VS20200615A) (SARS-CoV-2) (UniProt P0DTC2); experiment: binding kinetics from sensorgrams (FIG. 6); instrument and format not given

B1: antibody 30B8 (antibody, V domains shown)
VH: EVQLQQSGAELVKPGASVKLSCTASGFNIKDTYIHWVKQRPEQGLEWIGRIDPANGNTKYDPKFQGKATITADTSSNTAYLQLSSLTSEDTAVCYCAGSLYDYDGAPFAYWGQGTLVTVSA
VL: SIVMTQTPKFLLVSAGDRVTITCKASQSVTNDVTWYQQKPGQSPKLLIYYASNRYTGVPDRFTGSGYGTDFTFTISTVQAEDLAVYFCQQDYSSPWTFGGGTKLEIK
Kd [1]: 0.0171 nM
koff [1]: 3.96e-05 s⁻¹
kon [1]: 2.31e+06 M⁻¹ s⁻¹
Kd [2]: 0.0131 nM
koff [2]: 3.06e-05 s⁻¹
kon [2]: 2.33e+06 M⁻¹ s⁻¹
Kd [3]: 0.0171 nM
koff [3]: 3.98e-05 s⁻¹
kon [3]: 2.33e+06 M⁻¹ s⁻¹
Kd [4]: 0.0155 nM
koff [4]: 3.66e-05 s⁻¹
kon [4]: 2.37e+06 M⁻¹ s⁻¹
Kd [5]: 0.0159 nM
koff [5]: 3.76e-05 s⁻¹
kon [5]: 2.36e+06 M⁻¹ s⁻¹
EC50 (read off the curve) [6]: 0.7 µg/mL
Kd [7]: 0.0152 nM
koff [7]: 3.68e-05 s⁻¹
kon [7]: 2.42e+06 M⁻¹ s⁻¹
Kd [8]: 0.013 nM
koff [8]: 3.11e-05 s⁻¹
kon [8]: 2.39e+06 M⁻¹ s⁻¹
Kd [9]: 0.0138 nM
koff [9]: 3.25e-05 s⁻¹
kon [9]: 2.35e+06 M⁻¹ s⁻¹
Kd [10]: 0.0151 nM
Kd [11]: 0.015 nM
